Among the data in paper PMC11405398 are stoichiometry N (subunits per ring) values, retold here.

The experiment has as its target spore coat protein GerQ (Bacillus amyloiquefaciens). The experiment in a line: cryo-EM structure; native filaments extracted from B. amyloiquefaciens biofilm; helical reconstruction with C9 point group symmetry, rise 34.2 Å, twist −18.4°; 3.3 Å; partially unbundled filaments.

With “spore coat protein GerQ (natural protein)”, the stoichiometry N (subunits per ring) turned out to be 9.
